{"source": "patent US9591845B2", "about": "“Method for treating blood, blood products and organs” (FORSCHUNGSZENTRUM JUELICH GMBH, priority 2012, dated 2017)", "note": "Non-standard residues stand in square brackets, D forms with d. No end group written: not given here."}
{"target": "A-beta peptide (1-42) (Homo sapiens, UniProt P05067)", "sequence (P05067 672-713)": "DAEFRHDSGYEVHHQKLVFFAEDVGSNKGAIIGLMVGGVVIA", "experiment": "ThT seeding assay", "assay_type": "biochemical", "conditions": "coaggregates formed with 20 μM inhibitor, 7 days at 37° C., 10 mM NaPi pH 7.4; mixed 20:80 with fresh Aβ 20 μM, 10 μM ThT, fluorescence over 20 h"}
{"substance": "rpitrlrthqnr ([dR][dP][dI][dT][dR][dL][dR][dT][dH][dQ][dN][dR]) [DB3]", "seeding effect of preformed Abeta-inhibitor coaggregates (ability to increase the rate of the aggregation of fresh Abeta / shorten the lag phase)": "no seeding effect"}
{"substance": "rprtrlhthrnr ([dR][dP][dR][dT][dR][dL][dH][dT][dH][dR][dN][dR]) [D3]", "seeding effect of preformed Abeta-inhibitor coaggregates (ability to increase the rate of the aggregation of fresh Abeta / shorten the lag phase)": "no seeding effect"}
{"substance": "rprtrlrthqnr ([dR][dP][dR][dT][dR][dL][dR][dT][dH][dQ][dN][dR]) [DB4]", "seeding effect of preformed Abeta-inhibitor coaggregates (ability to increase the rate of the aggregation of fresh Abeta / shorten the lag phase)": "no seeding effect"}
{"substance": "rpitrlqtheqr ([dR][dP][dI][dT][dR][dL][dQ][dT][dH][dE][dQ][dR]) [DB5]", "seeding effect of preformed Abeta-inhibitor coaggregates (ability to increase the rate of the aggregation of fresh Abeta / shorten the lag phase)": "no seeding effect"}
{"substance": "rpitrlhtnrnr [DB1]", "seeding effect of preformed Abeta-inhibitor coaggregates (ability to increase the rate of the aggregation of fresh Abeta / shorten the lag phase)": "no seeding effect"}
{"substance": "rpittlqthqnr ([dR][dP][dI][dT][dT][dL][dQ][dT][dH][dQ][dN][dR]) [DB2]", "seeding effect of preformed Abeta-inhibitor coaggregates (ability to increase the rate of the aggregation of fresh Abeta / shorten the lag phase)": "no seeding effect"}
{"target": "A-beta peptide (1-42) (Homo sapiens, UniProt P05067)", "experiment": "ThT seeding assay", "assay_type": "biochemical", "conditions": "inhibitor-Abeta coaggregates added to fresh Aβ 20 μM, ThT fluorescence over 20 h"}
{"substance": "rprtrlrthqnr ([dR][dP][dR][dT][dR][dL][dR][dT][dH][dQ][dN][dR]) [DB4]", "formation of ThT-positive Abeta aggregates in the later phase": "appear to reduce the formation of ThT-positive Abeta aggregates in the later phase"}
